# Laboratory results as given in the supplement of paper PMC10567573.
# B1: MED27 (parent)
# chain: YNENVYTEDGKLDIWSKSNYQVFQ
# Variants of: B1
# Assay: protein stability index of a GFP-peptide fusion (GPS, HEK-293T) (PSI 1-6); higher = more stable
# Settings: c terminus: a fixed tail appended
# 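Further: lentivirally expressed fusions sorted by FACS into six bins by GFP to DsRed ratio, PSI derived from sequencing read proportions per bin multiplied by bin number.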
row,Variant,protein stability index
1,DNENVYTEDGKLDIWSKSNYQVFQ [Y1D],3.38
2,HNENVYTEDGKLDIWSKSNYQVFQ [Y1H],3.23
3,QNENVYTEDGKLDIWSKSNYQVFQ [Y1Q],3.74
4,SNENVYTEDGKLDIWSKSNYQVFQ [Y1S],3.23
5,INENVYTEDGKLDIWSKSNYQVFQ [Y1I],2.5
6,ENENVYTEDGKLDIWSKSNYQVFQ [Y1E],4.04
7,YNENVYTEDGKLDIWSKSNYYVFQ [Q21Y],2.02
8,YNENVYTEDGKLDIWSKSNYEVFQ [Q21E],2.09
9,YNENVYTEDGKLDIWSKSNYCVFQ [Q21C],2.01
10,YNENVYTEDGKLDIWSKSNYHVFQ [Q21H],2.64
11,YNNNVYTEDGKLDIWSKSNYQVFQ [E3N],2.36
12,YNTNVYTEDGKLDIWSKSNYQVFQ [E3T],1.88
13,YNVNVYTEDGKLDIWSKSNYQVFQ [E3V],1.69
14,YNLNVYTEDGKLDIWSKSNYQVFQ [E3L],1.48
15,YNGNVYTEDGKLDIWSKSNYQVFQ [E3G],2.34
16,YNANVYTEDGKLDIWSKSNYQVFQ [E3A],1.88
17,YNDNVYTEDGKLDIWSKSNYQVFQ [E3D],1.48
18,YNINVYTEDGKLDIWSKSNYQVFQ [E3I],1.81
19,YNYNVYTEDGKLDIWSKSNYQVFQ [E3Y],1.64
20,YNPNVYTEDGKLDIWSKSNYQVFQ [E3P],1.31
21,YNENVYTKDGKLDIWSKSNYQVFQ [E8K],1.86
22,YNENVYTTDGKLDIWSKSNYQVFQ [E8T],1.93
23,YNENVYTNDGKLDIWSKSNYQVFQ [E8N],2.62
24,YNENVYTQDGKLDIWSKSNYQVFQ [E8Q],1.82

row,Variant,protein stability index
1,YNENVYTHDGKLDIWSKSNYQVFQ [E8H],2.07
2,YNENVYTFDGKLDIWSKSNYQVFQ [E8F],1.69
3,YNENVYTEDGKLDIWSKSNYQVYQ [F23Y],2.31
4,YNENVYTEDGKLDIWSKSNYQVKQ [F23K],3.22
5,YNENVYTEDGKLDIWSKSNYQVEQ [F23E],3.02
6,YNENVYTEDGKLDIWSKSNYQVDQ [F23D],3.26
7,YNENVYTEDGKLDIWSKSNYQVIQ [F23I],2.43
8,YNENVYTEDGKLDIWSKSNYQVGQ [F23G],2.88
9,YNENVYTEDGKLDIWSKSNYQVPQ [F23P],2.99
10,YNENVYTEDGKLDIWSKSNYQVAQ [F23A],2.5
11,YNENVYTEDGKLDIWSFSNYQVFQ [K17F],1.68
12,YNENVYTEDGKLDIWSSSNYQVFQ [K17S],1.98
13,YNENVYTEDGKLDIWSDSNYQVFQ [K17D],2.26
14,YNENVYTEDGKLDIWSRSNYQVFQ [K17R],1.95
15,YNENVYTEDGKLDIWSHSNYQVFQ [K17H],2.43
16,YNENVYTEDGKLDIWSYSNYQVFQ [K17Y],1.98
17,YNENVYTEDGKLDIWSQSNYQVFQ [K17Q],1.89
18,YNENVYTEDGKLDIWSWSNYQVFQ [K17W],1.92
19,YNENVYTEDGKLDIWSPSNYQVFQ [K17P],2.68
20,YNENVYTEDGKLDIWSESNYQVFQ [K17E],2.37
21,YNENVYTEDGKLDIWSGSNYQVFQ [K17G],2.34
22,YNENVYTEDGKLDIWSKSNNQVFQ [Y20N],3.28
23,YNENVYTEDGKLDIWSKSNMQVFQ [Y20M],1.92
24,YNENVYTEDGKLDIWSKSNTQVFQ [Y20T],2.9

row,Variant,protein stability index
1,YNENVYTEDGKLDIWSKSNWQVFQ [Y20W],1.64
2,YNENVYTEDGKLDIWSKSNEQVFQ [Y20E],3.2
3,YNENVYTEDGKLDIWSKSNPQVFQ [Y20P],3.01
4,YNENVYTEDGKLDIWSKSNQQVFQ [Y20Q],2.94
5,YNENVYTEDGKLDIWSKRNYQVFQ [S18R],1.52
6,YNENVYTEDGKLDIWSKFNYQVFQ [S18F],1.36
7,YNENVYTEDGKLDIWSKHNYQVFQ [S18H],2.42
8,YNENVYTEDGKLDIWSKWNYQVFQ [S18W],1.68
9,YNENVYTEDGKLDIWSKMNYQVFQ [S18M],2.21
10,YNENVYTEDGKLDIWSKLNYQVFQ [S18L],2
11,YNENVYTEDGKLDIWSKNNYQVFQ [S18N],2.69
12,YNENVYTEDGKLDIWSKVNYQVFQ [S18V],2.58
13,YNENVYTEDGHLDIWSKSNYQVFQ [K11H],2.2
14,YNENVYTEDGWLDIWSKSNYQVFQ [K11W],2
15,YNENVYTEDGPLDIWSKSNYQVFQ [K11P],2.13
16,YNENVYTEDGILDIWSKSNYQVFQ [K11I],2.71
17,YNENVYTEDGNLDIWSKSNYQVFQ [K11N],2.56
18,YNENVYTEDGQLDIWSKSNYQVFQ [K11Q],2.38
19,YNENVYTEDGALDIWSKSNYQVFQ [K11A],2.27
20,YNENVYTEDGGLDIWSKSNYQVFQ [K11G],2.22
21,YNENVYTEDGKLLIWSKSNYQVFQ [D13L],1.69
22,YNENVYTEDGKLYIWSKSNYQVFQ [D13Y],2.04
23,YNENVYTEDGKLCIWSKSNYQVFQ [D13C],2.09
24,YNENVYTEDGKLHIWSKSNYQVFQ [D13H],2.44

row,Variant,protein stability index
1,YNENVYTEDGKLRIWSKSNYQVFQ [D13R],2.32
2,YNENCYTEDGKLDIWSKSNYQVFQ [V5C],2.05
3,YNENSYTEDGKLDIWSKSNYQVFQ [V5S],2.34
4,YNENEYTEDGKLDIWSKSNYQVFQ [V5E],3.28
5,YNENMYTEDGKLDIWSKSNYQVFQ [V5M],2.1
6,YNENGYTEDGKLDIWSKSNYQVFQ [V5G],2.71
7,YNENFYTEDGKLDIWSKSNYQVFQ [V5F],1.72
8,YNENVPTEDGKLDIWSKSNYQVFQ [Y6P],2.68
9,YNENVCTEDGKLDIWSKSNYQVFQ [Y6C],2.84
10,YNENVDTEDGKLDIWSKSNYQVFQ [Y6D],3.3
11,YNENVQTEDGKLDIWSKSNYQVFQ [Y6Q],2.76
12,YNENVSTEDGKLDIWSKSNYQVFQ [Y6S],3.26
13,YNENVGTEDGKLDIWSKSNYQVFQ [Y6G],2.57
14,YNENVYTEDGKLDIWIKSNYQVFQ [S16I],1.98
15,YNENVYTEDGKLDIWWKSNYQVFQ [S16W],1.91
16,YNENVYTEDGKLDIWMKSNYQVFQ [S16M],1.81
17,YNENVYTEDGKLDIWFKSNYQVFQ [S16F],2.87
18,YNENVYTEDGKLDIWNKSNYQVFQ [S16N],2.12
19,YNENVYTEDGKLDIWVKSNYQVFQ [S16V],2.06
20,YNENVYTEDGKLDIWAKSNYQVFQ [S16A],2.45
21,YNENVYTEDGKLDIWEKSNYQVFQ [S16E],2.6
22,YNENVYTEDGKLDIWDKSNYQVFQ [S16D],3.25
